Source: the Immune Epitope Database (IEDB)

Legend:
Test in all cases: IEDB peptide-MHC binding, purified MHC/direct/fluorescence; filed as Kd, often an IC50 or EC50 that approximates it; ≥ and ≤ were set here for values at or beyond the usual limits of such assays
HLA-A*01:01 = biological target: HLA-A*01:01
HLA-A*02:01 = biological target: HLA-A*02:01
HLA-A*03:01 = biological target: HLA-A*03:01
HLA-A*11:01 = biological target: HLA-A*11:01
HLA-A*26:01 = biological target: HLA-A*26:01
HLA-A*30:01 = conditions: source organism: Vibrio cholerae
HLA-A*31:01 = biological target: HLA-A*31:01
HLA-A*69:01 = biological target: HLA-A*69:01
HLA-B*07:02 = conditions: source organism: Vibrio cholerae
HLA-B*08:01 = biological target: HLA-B*08:01
HLA-B*15:01 = biological target: HLA-B*15:01
HLA-B*27:05 = biological target: HLA-B*27:05
HLA-B*35:01 = biological target: HLA-B*35:01
HLA-B*40:01 = biological target: HLA-B*40:01
HLA-B*44:02 = biological target: HLA-B*44:02
HLA-B*58:01 = biological target: HLA-B*58:01
HLA-A*24:03 = conditions: source organism: Cryptosporidium parvum
[1] = source organism: Vibrio cholerae
[2] = source organism: Cryptosporidium parvum

GEHWLGRIW
Kd (HLA-A*01:01; [1]): ≥ 20 µM | Kd (HLA-A*02:01; [1]): ≥ 20 µM | Kd (HLA-A*03:01; [1]): ≥ 20 µM | Kd (HLA-A*11:01; [1]): ≥ 20 µM | Kd (HLA-A*26:01; [1]): ≥ 20 µM | Kd (HLA-A*30:01): ≥ 20 µM | Kd (HLA-A*31:01; [1]): ≥ 20 µM | Kd (HLA-A*69:01; [1]): ≥ 20 µM | Kd (HLA-B*07:02): ≥ 20 µM | Kd (HLA-B*08:01; [1]): ≥ 20 µM | Kd (HLA-B*15:01; [1]): ≥ 20 µM | Kd (HLA-B*27:05; [1]): 13.1 µM | Kd (HLA-B*35:01; [1]): ≥ 10 µM | Kd (HLA-B*40:01; [1]): 0.858 µM | Kd (HLA-B*44:02; [1]): 3.83 µM | Kd (HLA-B*58:01; [1]): 19.4 µM

VPPTNSINK
Kd (HLA-A*01:01; [2]): ≥ 20 µM | Kd (HLA-A*02:01; [2]): ≥ 20 µM | Kd (HLA-A*03:01; [2]): ≥ 20 µM | Kd (HLA-A*11:01; [2]): ≥ 20 µM | Kd (HLA-A*24:03): ≥ 20 µM | Kd (HLA-A*26:01; [2]): ≥ 20 µM | Kd (HLA-A*31:01; [2]): ≥ 20 µM | Kd (HLA-A*69:01; [2]): ≥ 20 µM | Kd (HLA-B*08:01; [2]): ≥ 20 µM | Kd (HLA-B*15:01; [2]): ≥ 10 µM | Kd (HLA-B*27:05; [2]): ≥ 20 µM | Kd (HLA-B*35:01; [2]): 15 µM | Kd (HLA-B*40:01; [2]): ≥ 20 µM | Kd (HLA-B*44:02; [2]): ≥ 20 µM | Kd (HLA-B*58:01; [2]): ≥ 20 µM
